Source: the supplement of paper PMC11246515
± gives the standard deviation of the averaged measurements.

Test: total protein half-life in vivo (active degradation + dilution); higher = more stable protein
[1] = E. coli NCM3722 delta-clpP delta-lon delta-hslV, growth: N-lim chemostat, doubling time 6 h
[2] = E. coli NCM3722 delta-clpP, growth: N-lim chemostat, doubling time 6 h
[3] = E. coli NCM3722 delta-hslV, growth: N-lim chemostat, doubling time 6 h
[4] = E. coli NCM3722 delta-smpB, growth: N-lim chemostat, doubling time 6 h
[5] = wild type E. coli NCM3722, growth: C-lim chemostat, doubling time 3 h
[6] = wild type E. coli NCM3722, growth: C-lim chemostat, doubling time 6 h
[7] = wild type E. coli NCM3722, growth: C-lim chemostat, doubling time 12 h
[8] = wild type E. coli NCM3722, growth: N-lim chemostat, doubling time 6 h
[9] = wild type E. coli NCM3722, growth: N-lim chemostat, doubling time 12 h
[10] = wild type E. coli NCM3722, growth: P-lim chemostat, doubling time 6 h
[11] = wild type E. coli NCM3722, growth: P-lim chemostat, doubling time 12 h
[12] = E. coli NCM3722 delta-lon, growth: N-lim chemostat, doubling time 6 h

Sequence | total protein half-life in vivo [1] [h] | total protein half-life in vivo [2] [h] | total protein half-life in vivo [3] [h] | total protein half-life in vivo [4] [h] | total protein half-life in vivo [5] [h] | total protein half-life in vivo [6] [h] | total protein half-life in vivo [7] [h] | total protein half-life in vivo [8] [h] | total protein half-life in vivo [9] [h] | total protein half-life in vivo [10] [h] | total protein half-life in vivo [11] [h] | total protein half-life in vivo [12] [h]
MNFHHLAYWQDKALSLAIENRLFINGEYTAAAENETFETVDPVTQAPLAKIARGKSVDIDRAMSAARGVFERGDWSLSSPAKRKAVLNKLADLMEAHAEELALLETLDTGKPIRHSLRDDIPGAARAIRWYAEAIDKVYGEVATTSSHELAMIVREPVGVIAAIVPWNFPLLLTCWKLGPALAAGNSVILKPSEKSPLSAIRLAGLAKEAGLPDGVLNVVTGFGHEAGQALSRHNDIDAIAFTGSTRTGKQLLKDAGDSNMKRVWLEAGGKSANIVFADCPDLQQAASATAAGIFYNQGQVCIAGTRLLLEESIADEFLALLKQQAQNWQPGHPLDPATTMGTLIDCAHADSVHSFIREGESKGQLLLDGRNAGLAAAIGPTIFVDVDPNASLSREEIFGPVLVVTRFTSEEQALQLANDSQYGLGAAVWTRDLSRAHRMSRRLKAGSVFVNNYNDGDMTVPFGGYKQSGNGRDKSLHALEKFTELKTIWISLEA | 3.96 ± 0.66 | > 8 | 1.03 ± 0.13 | 1.11 ± 0.082 | 2.68 ± 0.027 | 2.8 ± 0.14 | 3.22 ± 0.67 | 1.43 ± 0.29 | 1.48 | 4.1373 ± 0.0017 | 6.22 ± 0.066 | 
MTHVCSVILIRRSFDIYHEQQKISLHNESILLLEKNLADDFAFCSPDTRRLDIDELTVCHYLQNIRQLPRNLGLHSKDRLLINQSPPMPLVTAIFDSFNESGVNSPILSNMLYLSCLSMFSHKKELIPLLFNSISTVSGKVERLISFDIAKRWYLRDIAERMYTSESLIKKKLQDENTCFSKILLASRMSMARRLLELRQIPLHTIAEKCGYSSTSYFINTFRQYYGVTPHQFAQHSPGTFS | 5.33 ± 0.16 | 1.51 |  | 0.628 |  |  |  | 0.171 |  |  |  | 
MNKVAQYYRELVASLSERLRNGERDIDALVEQARERVIKTGELTRTEVDELTRAVRRDLEEFAMSYEESLKEESDSVFMRVIKESLWQELADITDKTQLEWREVFQDLNHHGVYHSGEVVGLGNLVCEKCHFHLPIYTPEVLTLCPKCGHDQFQRRPFEP [P0AAT9] | 5.96 ± 0.99 | 4.62 ± 0.043 | 4.74 ± 0.38 | 4.05 ± 0.48 | 2.81 ± 0.34 | 4.632 ± 0.011 | 8.29 ± 0.47 | 3.87 ± 0.6 | 10.7 ± 3.1 | 5.95 ± 1.4 | 10.9 ± 0.48 | 5.364 ± 0.034
MSEAEARPTNFIRQIIDEDLASGKHTTVHTRFPPEPNGYLHIGHAKSICLNFGIAQDYKGQCNLRFDDTNPVKEDIEYVESIKNDVEWLGFHWSGNVRYSSDYFDQLHAYAIELINKGLAYVDELTPEQIREYRGTLTQPGKNSPYRDRSVEENLALFEKMRAGGFEEGKACLRAKIDMASPFIVMRDPVLYRIKFAEHHQTGNKWCIYPMYDFTHCISDALEGITHSLCTLEFQDNRRLYDWVLDNITIPVHPRQYEFSRLNLEYTVMSKRKLNLLVTDKHVEGWDDPRMPTISGLRRRGYTAASIREFCKRIGVTKQDNTIEMASLESCIREDLNENAPRAMAVIDPVKLVIENYQGEGEMVTMPNHPNKPEMGSRQVPFSGEIWIDRADFREEANKQYKRLVLGKEVRLRNAYVIKAERVEKDAEGNITTIFCTYDADTLSKDPADGRKVKGVIHWVSAAHALPVEIRLYDRLFSVPNPGAADDFLSVINPESLVIKQGFAEPSLKDAVAGKAFQFEREGYFCLDSRHSTAEKPVFNRTVGLRDTWAKVGE | 5.89 ± 0.95 | 5.11 ± 0.2 | 4.97 ± 0.059 | 4.92 ± 0.16 | 3.11 ± 0.31 | 6.39 ± 0.22 | 11.47 ± 0.028 | 5.25 ± 0.2 | 9.02 ± 0.47 | 5.959 ± 0.047 | 12.1 ± 0.73 | 5.31 ± 0.48
MDIIGGQHLRQMWDDLADVYGHKTALICESSGGVVNRYSYLELNQEINRTANLFYTLGIRKGDKVALHLDNCPEFIFCWFGLAKIGAIMVPINARLLCEESAWILQNSQACLLVTSAQFYPMYQQIQQEDATQLRHICLTDVALPADDGVSSFTQLKNQQPATLCYAPPLSTDDTAEILFTSGTTSRPKGVVITHYNLRFAGYYSAWQCALRDDDVYLTVMPAFHIDCQCTAAMAAFSAGATFVLVEKYSARAFWGQVQKYRATVTECIPMMIRTLMVQPPSANDQQHRLREVMFYLNLSEQEKDAFCERFGVRLLTSYGMTETIVGIIGDRPGDKRRWPSIGRVGFCYEAEIRDDHNRPLPAGEIGEICIKGIPGKTIFKEYFLNPQATAKVLEADGWLHTGDTGYRDEEDFFYFVDRRCNMIKRGGENVSCVELENIIAAHPKIQDIVVVGIKDSIRDEAIKAFVVLNEGETLSEEEFFRFCEQNMAKFKVPSYLEIRKDLPRNCSGKIIRKNLK | 5.31 |  | 6.57 | 3.61 ± 0.13 |  |  | 11.3 | 4.98 | 7.9 |  | 10.7 ± 0.12 | 
MKKLLRLFFPLSLRVRFLLATAAVVLVLSLAYGMVALIGYSVSFDKTTFRLLRGESNLFYTLAKWENNKLHVELPENIDKQSPTMTLIYDENGQLLWAQRDVPWLMKMIQPDWLKSNGFHEIEADVNDTSLLLSGDHSIQQQLQEVREDDDDAEMTHSVAVNVYPATSRMPKLTIVVVDTIPVELKSSYMVWSWFIYVLSANLLLVIPLLWVAAWWSLRPIEALAKEVRELEEHNRELLNPATTRELTSLVRNLNRLLKSERERYDKYRTTLTDLTHSLKTPLAVLQSTLRSLRSEKMSVSDAEPVMLEQISRISQQIGYYLHRASMRGGTLLSRELHPVAPLLDNLTSALNKVYQRKGVNISLDISPEISFVGEQNDFVEVMGNVLDNACKYCLEFVEISARQTDEHLYIVVEDDGPGIPLSKREVIFDRGQRVDTLRPGQGVGLAVAREITEQYEGKIVAGESMLGGARMEVIFGRQHSAPKDE | 7.01 ± 1.1 | 6.22 ± 0.32 | 5.85 ± 0.59 | 6.02 ± 0.93 | 3.26 ± 0.4 | 5.936 ± 0.044 | 10.2 ± 1.2 | 6.046 ± 0.045 | 12.5 ± 0.13 | 6.36 ± 0.37 | 13.5 ± 1.9 | 6.87 ± 1.1
MAEMKNLKIEVVRYNPEVDTAPHSAFYEVPYDATTSLLDALGYIKDNLAPDLSYRWSCRMAICGSCGMMVNNVPKLACKTFLRDYTDGMKVEALANFPIERDLVVDMTHFIESLEAIKPYIIGNSRTADQGTNIQTPAQMAKYHQFSGCINCGLCYAACPQFGLNPEFIGPAAITLAHRYNEDSRDHGKKERMAQLNSQNGVWSCTFVGYCSEVCPKHVDPAAAIQQGKVESSKDFLIATLKPR [P0AC47] |  | 5.78 ± 0.38 | 6.96 ± 1 | 5.82 ± 0.086 | 3.07 ± 0.19 | 5.76 ± 0.11 | 11 ± 2.1 | 6.1 ± 0.5 | 12.2 ± 1.8 | 5.48 ± 0.44 | 13.1 ± 1.2 | 5.92 ± 0.62
MAGHSKWANTRHRKAAQDAKRGKIFTKIIRELVTAAKLGGGDPDANPRLRAAVDKALSNNMTRDTLNRAIARGVGGDDDANMETIIYEGYGPGGTAIMIECLSDNRNRTVAEVRHAFSKCGGNLGTDGSVAYLFSKKGVISFEKGDEDTIMEAALEAGAEDVVTYDDGAIDVYTAWEEMGKVRDALEAAGLKADSAEVSMIPSTKADMDAETAPKLMRLIDMLEDCDDVQEVYHNGEISDEVAATL [P0A8A0] | 5.28 ± 0.71 | 4.61 ± 0.6 | 3.03 ± 0.19 | 2.94 ± 0.12 | 2.524 ± 0.013 | 4.01 ± 0.095 | 7.21 ± 0.53 | 3.15 ± 0.058 | 4.09 ± 0.034 | 3.69 ± 0.66 | 6.79 ± 0.84 | 3.29 ± 0.17
